Measurements reported in article PMC3025461.
Each block holds one molecule with its values, some of them ahead of it.

Experiments:
[1] = molecular target: S. cerevisiae Smc1 hinge protein (S480-E681), wild type (S. cerevisiae) (UniProt P32908); assay: ITC
[2] = molecular target: S. cerevisiae Smc1DD hinge protein (S480-E681; K554D, K661D) (S. cerevisiae) (UniProt P32908); assay: ITC
[3] = molecular target: S. cerevisiae Smc3-FLAG hinge protein (S. cerevisiae); assay: pull-down

Kd [1]: 22 nM
Molecule: S. cerevisiae Smc3 hinge protein (T495-L695), wild type (domain or fragment)

Kd [1]: 24 nM
Kd [2]: 29 nM
reduction in dH against wild-type Smc1/Smc3 [2]: 4 kcal/mol
Molecule: S. cerevisiae Smc3AAA hinge protein (T495-L695; R665A, K668A, R669A) (domain or fragment)

half time [3]: 30 min
half-life of the hinge dimer [3]: 15 to 30 min
B1: S. cerevisiae Smc1 hinge protein (S480-E681), wild type (domain or fragment)
chain: SANNQEYDLNFKLRETLVKIDDLSANQRETMKERKLRENIAMLKRFFPGVKGLVHDLCHPKKEKYGLAVSTILGKNFDSVIVENLTVAQECIAFLKKQRAGTASFIPLDTIETELPTLSLPDSQDYILSINAIDYEPEYEKAMQYVCGDSIICNTLNIAKDLKWKKGIRGKLVTIEGALIHKAGLMTGGISGDANNRWDKEE
